Source: patent publication US20120117670A1 (U3 PHARMA, published 2012)
Positions count from the first letter of the chain named.

Key:
[1] = target: T1, Human AXL-Fc (R&D Systems, #154-AL) (human, UniProt P30530 26-451); assay: ELISA on plate-adsorbed human AXL-Fc (1 ug/ml), 5-fold antibody dilution series, AP-conjugated goat anti-human IgG, fluorescent substrate (Example 13)
T1 construct: Bought reagent; also called human AXL-Fc fusion protein; human AXL-Fc protein; not shown: Fc part of the bought fusion protein
T1 sequence: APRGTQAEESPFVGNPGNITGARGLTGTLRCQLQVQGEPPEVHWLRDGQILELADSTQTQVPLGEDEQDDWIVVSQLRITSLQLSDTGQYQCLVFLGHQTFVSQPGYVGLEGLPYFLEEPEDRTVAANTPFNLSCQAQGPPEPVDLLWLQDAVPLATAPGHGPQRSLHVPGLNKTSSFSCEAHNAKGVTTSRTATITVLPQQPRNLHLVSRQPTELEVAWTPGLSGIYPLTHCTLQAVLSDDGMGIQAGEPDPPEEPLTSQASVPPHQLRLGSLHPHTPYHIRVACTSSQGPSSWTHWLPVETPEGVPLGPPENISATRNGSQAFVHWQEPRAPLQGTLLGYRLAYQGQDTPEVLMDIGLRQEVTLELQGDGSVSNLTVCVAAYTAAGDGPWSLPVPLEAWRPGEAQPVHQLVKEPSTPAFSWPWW

[2] = target: T1, Human AXL-Fc (R&D Systems, #154-AL); assay: ELISA on plate-adsorbed human AXL-Fc (1 ug/ml), 5-fold antibody dilution series, AP-conjugated goat anti-human IgG, fluorescent substrate (Example 23)
[3] = target: T2, human receptor tyrosine kinase AXL (human, UniProt P30530 26-894); assay: FACS Scatchard on human AXL overexpressing NIH3T3 cells; apparent KD (KDapp)
T2 construct: also called hAXL; human AXL on NIH3T3-AXL cI.7, RatI-AXL cI.2 and human cancer cell lines
T2 sequence: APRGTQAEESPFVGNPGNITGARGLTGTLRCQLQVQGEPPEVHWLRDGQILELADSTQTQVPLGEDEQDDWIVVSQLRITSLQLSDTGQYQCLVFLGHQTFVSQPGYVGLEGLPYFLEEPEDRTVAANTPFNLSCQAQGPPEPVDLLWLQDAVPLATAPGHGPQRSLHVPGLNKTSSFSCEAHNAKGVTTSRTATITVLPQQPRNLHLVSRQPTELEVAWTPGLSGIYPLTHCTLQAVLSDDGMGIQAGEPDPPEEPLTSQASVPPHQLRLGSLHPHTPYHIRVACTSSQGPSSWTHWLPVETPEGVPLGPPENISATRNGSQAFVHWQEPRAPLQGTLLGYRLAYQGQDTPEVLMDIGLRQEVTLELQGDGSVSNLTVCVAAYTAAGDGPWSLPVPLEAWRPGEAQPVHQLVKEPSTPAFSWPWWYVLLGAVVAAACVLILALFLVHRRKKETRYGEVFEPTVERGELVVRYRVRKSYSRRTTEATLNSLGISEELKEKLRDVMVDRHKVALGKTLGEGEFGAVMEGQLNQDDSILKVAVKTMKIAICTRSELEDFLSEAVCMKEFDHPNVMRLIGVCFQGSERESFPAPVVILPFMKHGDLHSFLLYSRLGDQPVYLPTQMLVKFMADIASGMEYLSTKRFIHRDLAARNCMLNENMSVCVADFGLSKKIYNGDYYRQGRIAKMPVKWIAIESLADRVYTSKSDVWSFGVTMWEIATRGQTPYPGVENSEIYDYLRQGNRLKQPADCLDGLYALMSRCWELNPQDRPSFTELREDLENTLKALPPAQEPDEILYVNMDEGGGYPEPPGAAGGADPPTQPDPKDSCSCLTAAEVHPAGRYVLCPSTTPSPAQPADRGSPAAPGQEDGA
Procedure: Human AXL overexpression NIH3T3 cells were harvested by incubation with 10 mM EDTA in PBS and resuspended at 6 million cells per ml in FACS buffer (PBS pH 7.4, 3% FCS, 0.1% NaN3). In a round-bottom microtiter plate, 100 μl of cell suspension were added to 100 μl of antibody solution containing antibodies 11B7, 11D5, ch11B7-IgG1, ch11B7-IgG2, ch11D5-IgG1 or ch11D5-IgG2 at concentrations between 40 and 0.002 μg/ml (266 and 0.01 nM) in FACS buffer. Antibody binding was allowed to proceed for 2 hours on ice. Then, cells were washed twice with 250 μl FACS buffer per well, and resuspended in 200 μl of secondary antibody (anti-rat-PE; Jackson) diluted 1:50 in FACS buffer. After 45 minutes of incubation, cells were again washed twice in FACS buffer and resuspended in […] PBS for FACS analysis. Analysis was carried out on a Beckman-Coulter FACS FC500. To determine the apparent affinity constant KDapp, mean fluorescence values were plotted against the ratio of mean fluorescence and the corresponding antibody concentration ([M]). The calculated KDapp resulted from the inverse slope of the straight line are listed below: […]

[4] = target: T1, Human AXL-Fc (R&D Systems, #154-AL); assay: ELISA on plate-adsorbed human AXL-Fc (1 ug/ml), 5-fold antibody dilution series, AP-conjugated goat anti-human IgG, fluorescent substrate (Example 14)
[5] = target: T3, NHis-hAXL26-131 (human AXL single IG domain) (human, UniProt P30530 33-138); assay: ELISA on plate-adsorbed human AXL IG-domain fragment (1 ug/ml), antibody at 0.04 ug/ml, fluorescent substrate (Example 16)
T3 construct: Made in E. coli; tag kept
Procedure: Then, each solution was dispensed in the amount of […] to an Immuno Plate (manufactured by Nalge Nunc International K.K., #437111) and left standing overnight at 4° C. to adsorb the peptide onto the plate. On the next day, the wells were washed 5 times with a PBS-T solution (PBS and 0.05% (v/v) Tween 20). Then, a solution containing skim milk (manufactured by Morinaga Milk Industry Co., Ltd.) diluted with PBS to 5% was dispensed in an amount of 100 μl/well and left standing at room temperature for 2 hours. The solutions in the wells were removed, and the wells were washed 5 times with a PBS-T solution. The rat anti-human AXL monoclonal antibody #11B7 was diluted to 0.04 μg/ml with a PBS solution containing 0.5% skim milk. Then, the solution was dispensed in amount of 100 μl/well and left standing at room temperature for 2 hours. The wells were washed 5 times with a PBS-T solution. […] Then, a fluorescent substrate solution (manufactured by Roche Diagnostics K.K., #11681982001) was added in the amount of 100 μl/well to perform fluorescence reaction. The fluorescence intensity on the human AXL-IG domain-adsorbed plate was measured 15 minutes after the addition of the fluorescent substrate solution using a SpectraMax M5 (manufactured by Molecular Devices Corp.). […]

B1: h#11B7-T3 (antibody, human IgG1, kappa, V domains shown)
VH: QVQLQESGPGLVKPSQTLSLTCAVSGYSITSNYWGWIRKPPGDGLEWMGYITYSGSTSYNPSLKSRISITRDTSKNQFSLKLSSVTAADTAVYYCAITTFYYWGQGTLVTVSS
VL: DIQMTQSPSSLSASVGDRVTITCRASQDIGNYLRWFQQKPGKAPKLMISGATNLAAGVPSRFSGSRSGSDYTLTISSLQPEDFATYYCLQSKESPWTFGGGTKVEIKR
notes: Humanized IgG1/kappa
[1]
  EC50 (read off the curve): ~0.02 µg/mL

B2: h#11B7-T4 (antibody, human IgG1, kappa)
heavy: not shown
light: DIQMTQSPSSLSASVGDRVTITCRASQDIGNYLRWYQQKPGKAPKLLISGATNLAAGVPSRFSGSGSGSDFTLTISSLQPEDFATYYCLQSKESPWTFGQGTKLEIKRTVAAPSVFIFPPSDEQLKSGTASVVCLLNNFYPREAKVQWKVDNALQSGNSQESVTEQDSKDSTYSLSSTLTLSKADYEKHKVYACEVTHQGLSSPVTKSFNRGEC
notes: Humanized IgG1/kappa
[1]
  EC50 (read off the curve): ~0.06 µg/mL

B3: h#11B7-T5 (antibody, human IgG1, kappa)
heavy: not shown
light: B2 light with Y36F, L47M, F71Y
notes: Humanized IgG1/kappa
[1]
  EC50 (read off the curve): ~0.02 µg/mL

B4: h#11B7-T6 (antibody, human IgG1, kappa)
heavy: not shown
light: B2 light with Y36F, L47M, F71Y, L104V
notes: Humanized IgG1/kappa
[1]
  EC50 (read off the curve): ~0.02 µg/mL

B5: h#11B7-T28 (antibody, human IgG1, kappa)
heavy: not shown
light: B2 light with Y36F, F71Y
notes: Humanized IgG1/kappa
[2]
  EC50 (read off the curve): ~0.04 µg/mL

B6: h#11B7-T29 (antibody, human IgG1, kappa)
heavy: not shown
light: B2 light with Y36F
notes: Humanized IgG1/kappa
[2]
  EC50 (read off the curve): ~0.04 µg/mL

B7: h#11B7-T30 (antibody, human IgG1, kappa)
heavy: not shown
light: B2 light with Y36F, F71Y
notes: Humanized IgG1/kappa
[2]
  EC50 (read off the curve): ~0.04 µg/mL

B8: h#11B7-T31 (antibody, human IgG1, kappa)
heavy: not shown
light: B2 light with Y36F
notes: Humanized IgG1/kappa
[2]
  EC50 (read off the curve): ~0.04 µg/mL

B9: chimeric anti-AXL antibody ch11B7-IgG1 (antibody, V domains shown)
VH: EVQLQESGPGLVKPSQSLSLTCSVTGYSITSNYWGWIRKFPGDKMEWMGYITYSGSTSYNPSLKSRISITRDTSKNQFFLQLNSVTSEDTATYYCAITTFYYWGQGVMVTVSS
VL: DIQMTQAPSSLPASLGDRVTITCRASQDIGNYLRWFQQKPGKSPRLMISGATNLAAGVPSRFSGSRSGSDYSLTISSLESEDMADYYCLQSKESPWTFGGGTKLELKR
notes: Rat/human chimera, human IgG1/kappa; also called chm11B7; chimeric anti-AXL mAb #11B7
[3]
  Kd: 600 pM
[1]
  EC50 (read off the curve): ~0.02 µg/mL

B10: h#11B7-T2 (antibody, human IgG1, kappa, V domains shown)
VH: B1 VH with V2I, K39Q, D43K, T70S, R71V
VL: B1 VL with S65T, R66G, S69T, L73F
notes: Humanized IgG1/kappa
[1]
  EC50 (read off the curve): ~0.03 µg/mL

B11: h#11D5-T6 (antibody, human IgG1, kappa)
heavy: not shown
light: DIQMTQSPSSLSASVGDRVTITCRASQDIGNYLSWFQQKPGKAPRRMIYGAIKLAVGVPSRFSGSGSGTDYTLTISSLQPEDFATYYCLQYIQFPLTFGQGTKVEIKRTVAAPSVFIFPPSDEQLKSGTASVVCLLNNFYPREAKVQWKVDNALQSGNSQESVTEQDSKDSTYSLSSTLTLSKADYEKHKVYACEVTHQGLSSPVTKSFNRGEC
notes: Humanized IgG1/kappa
[4]
  EC50 (read off the curve): ~0.01 µg/mL

B12: h#11D5-T3 (antibody, human IgG1, kappa, V domains shown)
VH: EVQLQESGPGLVKPSQTLSLTCTVSGYSITSNYWGWIRKFPGNKMEWIGHITNSGNTTYNPSLKSRISISRDTSKNQFSLKLSSVTPADTAVYYCAKGAFDYWGQGTLVTVSS
VL: DIQMTQSPSSLSASVGDRVTITCRASQDIGNYLSWFQQKVGKSPRRMIYGAIKLAVGVPSRFSGSRSGSDYTLTISSLQPEDFAIYYCLQYIQFPLTFGSGTKLEIKR
notes: Humanized IgG1/kappa
[4]
  EC50 (read off the curve): ~0.02 µg/mL

B13: chimeric anti-AXL antibody ch11D5-IgG1 (antibody, V domains shown)
VH: EVQLQESGPGLVKPSQSLSLTCSVTGYSITSNYWGWIRKFPGNKMEWIGHITNSGNTTYNPSLKSRISISRDTSRNQFFLQLNSVTTEDTATYYCAKGAFDYWGQGVMVTVSS
VL: B12 VL with L11M, A13T, V15L, T72S, Q79E, P80S, F83M, I106L
notes: Rat/human chimera, human IgG1/kappa; also called chm11D5; human chimeric antibody
[4]
  EC50 (read off the curve): ~0.01 µg/mL
[3]
  Kd: 400 pM

B14: rat anti-human AXL monoclonal antibody #11B7 (antibody, rat IgG1, V domains shown)
VH: B9 VH
VL: B9 VL
notes: Rat IgG1/kappa from hybridoma; also called I11B7; rat anti-AXL antibody 11B7
[5]
  binding result: no binding (tested: 0.04 ug/ml)
[3]
  Kd: 380 pM

B15: rat anti-human AXL monoclonal antibody #11D5 (antibody, rat IgG2a, V domains shown)
VH: B13 VH
VL: B12 VL with L11M, A13T, V15L, T72S, Q79E, P80S, F83M, I106L
notes: Rat IgG2a/kappa from hybridoma; also called III11D5
[3]
  Kd: 810 pM
